From patent US20230338477A1 (published 2023)

B1: 69323 (antibody, V domains shown)
VH: EVQLVESGGGLVQPGRSLRLSCAASGFTFDDYAMHWVRQAPGKGLEWVSGISWNSGYIGYADSVKGRFTISRDNAENSLHLQMNSLRAEDTALYYCARGGSTLVRGVKGGYYGMDVWGQGTTVTVSS
VL: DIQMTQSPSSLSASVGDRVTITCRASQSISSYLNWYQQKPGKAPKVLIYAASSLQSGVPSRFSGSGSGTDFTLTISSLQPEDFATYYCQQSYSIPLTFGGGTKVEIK
notes: Anti-hTfR antibody of the initial screen; only variable domains are tied to it
B2: 69305 (antibody, V domains shown)
VH: QVQLVESGGGVVQPGRSLRLSCAASGFTFSSYGMHWVRQAPGKGLEWVAVIWYDGSNKYYADSVKGRFTISRDISKNTLYLQMNSLRAEDTAVYYCAGQLDLFFDYWGQGTLVTVSS
VL: DIQMTQSPSSLSASVGDRVTITCRASQSIDRYLNWYRQKPGKAPKLLIYTTSSLQSGVPSRFSGSGSGTDFTLTLSSLQPEDFATYYCQQSYSPPLTFGGGTKVEIK
notes: as for B1
B3: 69329 (antibody, V domains shown)
VH: EVQLVESGGGLVQPGGSLRLSCAASGFTFSNYWMTWVRQAPGKGLEWVANIKEDGSEKDYVDSVKGRFTISRDNAKNSLYLQMNSLRGEDTAVYYCARDGEQLVDYYYYYVMDVWGQGTTVTVSS
VL: DIQMTQSPSSVSASVGDRVTITCRASQGISSWLAWYQQKPGKAPKLLIYAASSLQSGVPSRFSGSGSGTDFTLTISSLQPEDFATYYCQKANSFPYTFGQGTKLEIK
notes: as for B1
B4: 69307 (antibody, V domains shown)
VH: EVQLVESGGGLVQPGGSLRLSCTASGFTFSNYWMTWVRQAPGKGLEWVANIKEDGSEKEYVDSVKGRFTISRDNAKNSLYLQMNSLRGEDTAVYYCARDGEQLVDYYYYYVMDVWGQGTTVTVSS
VL: DIQMTQSPSSVSASVGDRVTITCRASQGISSWLAWYQQKPGKAPKLLIYAASSLQSGVPSRFSGSGSGTDFTLTISSLQPEDFATYYCQKADSLPYAFGQGTKLEIK
notes: as for B1
B5: 12795B (antibody, V domains shown)
VH: EVQLVESGGGLVQPGGSLRLSCATSGFTFTSYDMKWVRQAPGLGLEWVSAISGSGGNTYYADSVKGRFTISRDNSRNTLYLQMNSLRAEDTAVYYCTRSHDFGAFDYFDYWGQGTLVTVSS
VL: DIQMTQSPSSLSASVGDRVTITCRASQGIRDHFGWYQQKPGKAPKRLIYAASSLHSGVPSRFSGSGSGTEFTLTISSLQPEDFATYYCLQYDTYPLTFGGGTKVEIK
notes: as for B1
B6: 12798B (antibody, V domains shown)
VH: EVQLVESGGDLVQPGRSLRLSCAASGFTFDDYAMHWVRQAPGKGLEWVSGISWNSATRVYADSVKGRFTISRDNAKNFLYLQMNSLRSEDTALYHCAKDMDISLGYYGLDVWGQGTTVTVSS
VL: not shown
notes: as for B1
B7: 12799B (antibody, V domains shown)
VH: QITLKESGPTLVKPTQTLTLTCTFSGFSLSTSGVGVVWIRQPPGKALEWLALIYWNDHKRYSPSLGSRLTITKDTSKNQVVLTMTNMDPVDTATYYCAHYSGSYSYYYYGLDVWGQGTTVTVSS
VL: DIQMTQSPSSVSASVGDRVTITCRASQGIASWLAWYQQKPGKAPELLIYAASSLQGGVPSRFSGSGSGTDFTLTISSLQPEDFAIYYCQQANYFPWTFGQGTKVEIK
notes: as for B1
B8: 12801B (antibody, V domains shown)
VH: EVQLLESGGALVQPGGSLRLSCAASGFTFTSYAMHWVRQAPGKGLEWVSSIRGSGGGTYSADSVKGRFTISRDNSRDTLYLQMNSVRAEDTAVYYCARSHDYGAFDFFDYWGQGTLVTVSS
VL: DIQMTQSPSSLSASVGDRVTITCRASQGIRTDLGWYQQKPGKAPKRLIYAASSLQSGVPSRFSGSGSGTEFTLTISSLRPEDFATFYCLQYNSYPLTFGGGTKVEIK
notes: as for B1
B9: 12802B (antibody, V domains shown)
VH: QVQLVESGGGLVKPGGSLRLSCAASGFTFSDYFMSWIRQAPGKGLEWVSYISSTGSTINYADSVKGRFTISRDNVKNSLYLQMTSLRVEDTAVYYCTRDNWNYEYWGQGTLVTVSS
VL: EIVMTQSPATLSVSPGERATLSCRASQSVSINLAWYQQKPGQAPRLLIFVASTRATGIPARFSGSGSGTEFTLTISSLQSEDFATYYCQQYDIWPYTFGQGTKLEIK
notes: as for B1
B10: 12808B (antibody, V domains shown)
VH: QLQLQESGPGLVKPSETLSLTCTVSGESISSNTYYWGWIRQPPGKGLEWIGSIDYSGTTNYNPSLKSRVTISVDTSRNHFSLRLRSVTAADTAVYYCAREWGNYGYYYGMDVWGQGTTVTVSS
VL: DIQMTQSPSSLSASVGDRVTINCRASQGIRNDLGWYQQKPGKAPKRLIYAASSLQSGVPLRFSGSGSGTEFTLTINNLQPEDFATYYCLSHNSYPWTFGQGTKVEIK
notes: as for B1
B11: 12812B (antibody, V domains shown)
VH: QVQLVQSGAEVKKPGSSVRVSCKASRGTFSSYAISWVRQAPGQGLEWMGGIIPIFGTANYAQKFLARVTITADESTSTAYMELSSLRSEDTAVYYCAREKGWNYFDYWGQGTLVTVSS
VL: DIQMTQSPPSVSASVGDRVTITCRASQGISSWLAWYQQKPGKAPKLLIYAASSLQSGVPSRFSGSGSGTDFTLTISSLQPEDFATYYCQQANSFPRTFGQGTKVEIK
notes: as for B1
B12: 31874B (antibody, V domains shown)
VH: EVQLVESGGGLVQPGGSLRLSCAASGFAFSSYAMTWVRQAPGKGLEWVSVISGTGGSTYYADSVKGRFTISRDNSKNTLYLQMNSLRAEDTAVYYCAKGGAARRMEYFQYWGQGTLVTVSS
VL: DIQMTQSPSSLSASVGDRVTITCRASQGISNYLAWYQQKPGKVPNLLIYAASTLQSGVPSRFSGSGSGTDFTLTISSLQPEDVATYYCQKYNSAPLTFGGGTKVEIK
notes: as for B1
B13: 12816B (antibody, V domains shown)
VH: QVQLVESGGGLVKPGGSLRLSCAASGFTFSDYYMNWIRQAPGKGLEWVSYISSSGTTIYYADSVKGRFTISRDNAKKSLYLEMNSLRAEDTAVYYCAREGYGNDYYYYGIDVWGQGTTVTVSS
VL: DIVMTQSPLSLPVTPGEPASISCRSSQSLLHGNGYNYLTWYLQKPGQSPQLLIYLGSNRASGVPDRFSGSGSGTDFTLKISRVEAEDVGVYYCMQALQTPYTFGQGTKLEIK
notes: as for B1
B14: 12833B (antibody, V domains shown)
VH: QVQLVESGGGVVQPGRSLRLSCAASGFTFSSFGMHWVRQAPGKGLEWVIFISYDGSDKYYADSVKGRFAISRDSSKNTLYLQMNSLRAEDTAVYYCAKENGILTDSYGMDVWGQGTTVTVSS
VL: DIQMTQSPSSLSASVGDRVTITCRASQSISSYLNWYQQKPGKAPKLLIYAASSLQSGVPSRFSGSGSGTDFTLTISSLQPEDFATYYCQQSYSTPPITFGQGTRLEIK
notes: as for B1
B15: 12834B (antibody, V domains shown)
VH: QVQLVQSGAEVKKPGASVKVSCKASGYTFTSYGISWVRQAPGQGLEWMGWISVYHGNTNYAQKFQGRVTMTTDTSTSTAYMELRSLRSDDTAVYYCAREGYYDFWSGYYPFDYWGQGTLVTVSS
VL: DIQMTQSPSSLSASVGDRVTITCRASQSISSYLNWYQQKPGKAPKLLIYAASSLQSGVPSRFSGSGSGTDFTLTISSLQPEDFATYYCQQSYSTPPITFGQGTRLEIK
notes: as for B1
B16: 12835B (antibody, V domains shown)
VH: EVQLVESGGGLIQPGGSLRLSCEASGFTFRNYEMNWVRQAPGKGLEWVSYISSSGNMKDYAESVKGRFTISRDNVKNSLQLQMNSLRVEDTAVYYCARDEFPYGMDVWGQGTTVTVSS
VL: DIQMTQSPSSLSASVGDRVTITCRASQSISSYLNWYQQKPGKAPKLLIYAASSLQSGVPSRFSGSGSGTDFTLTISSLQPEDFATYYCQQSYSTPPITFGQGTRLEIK
notes: as for B1
B17: 12847B (antibody, V domains shown)
VH: EVQLVESGGGLVQPGRSLRLSCAASGFTFDDYAMNWVRQAPGKGLEWVSGISWSSGSMDYADSVKGRFTISRDNAKNSLYLQMNSLRTEDTALYYCAKAREVGDYYGMDVWGQGTTVTVSS
VL: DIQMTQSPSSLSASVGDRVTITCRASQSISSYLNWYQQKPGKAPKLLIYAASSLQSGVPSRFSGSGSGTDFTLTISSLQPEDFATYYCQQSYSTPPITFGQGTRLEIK
notes: as for B1
B18: 12848B (antibody, V domains shown)
VH: EVQLVESGGGLVQPGRSLTLSCAASGFTFDNFGMHWVRQGPGKGLEWVSGLTWNSGVIGYADSVKGRFTISRDNAKNSLYLQMNSLRPEDTALYYCAKDIRNYGPFDYWGQGTLVTVSS
VL: not shown
notes: as for B1
B19: 12843B (antibody, V domains shown)
VH: EVQLVESGGGLVQPGGSLRLSCAASGFTFNIFEMNWVRQAPGKGLEWISYISSRGTTTYYADSVRGRFTISRDNAKNSLYLQMNSLRAEDTAVYYCARDYEATIPFDFWGQGTLVTVSS
VL: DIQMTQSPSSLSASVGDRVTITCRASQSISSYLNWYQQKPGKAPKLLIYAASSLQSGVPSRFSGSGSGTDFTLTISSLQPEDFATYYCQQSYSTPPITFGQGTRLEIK
notes: as for B1
B20: 12844B (antibody, V domains shown)
VH: EVQLVESGGSVVRPGGSLRLSCEASGFTFDDYGMSWVRQDPGKGLEWVSGINWNGDRTNYADSVKGRFIISRDNAKNSVYLQMNSLRAEDSALYHCARDQGLGVAATLDYWGQGTLVTVSS
VL: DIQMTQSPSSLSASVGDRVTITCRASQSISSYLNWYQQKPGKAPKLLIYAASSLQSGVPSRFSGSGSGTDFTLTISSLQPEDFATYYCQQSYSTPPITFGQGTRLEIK
notes: as for B1
B21: 12845B (antibody, V domains shown)
VH: EVQLVESGGGLVQPGGSLRLSCAASGFTVSNYEMNWVRQAPGKGLEWVSYISSSTSNIYYADSVKGRFTISRDNAENSLYLQMNSLRVEDTAVYYCVRDGIVVVPVGRGYYYYGLDVWGQGTTVTVSS
VL: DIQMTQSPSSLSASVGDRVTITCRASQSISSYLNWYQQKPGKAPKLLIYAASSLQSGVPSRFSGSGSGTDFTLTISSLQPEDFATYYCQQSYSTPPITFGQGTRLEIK
notes: as for B1
B22: 12839B (antibody, V domains shown)
VH: QVQLVESGGGVVQPGRSLRLSCAASGFPFSNYVMYWVRQAPGKGLEWVALIFFDGKKNYHADSVKGRFTITRDNSKNMLYLQMNSLRPEDAAVYYCAKIHCPNGVCYKGYYGMDVWGQGTTVTVSS
VL: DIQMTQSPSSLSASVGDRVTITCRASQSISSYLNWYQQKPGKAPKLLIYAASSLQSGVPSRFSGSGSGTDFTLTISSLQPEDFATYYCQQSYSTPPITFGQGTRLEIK
notes: as for B1
B23: 31863B (antibody, V domains shown)
VH: EVQLVESGGGLVQPGGSLRLSCAASGFTFNSYAMTWVRQAPGKGLEWVSFIGGSTGNTYYAGSVKGRFTISSDNSKKTLYLQMNSLRAEDTAVYYCAKGGAARRMEYFQHWGQGTLVTVSS
VL: DIQMTQSPSSLSASIGDRVTITCRASQGISNYLAWYQQKPGKVPKLLIYAASTLQSGVPSRFSGSGSGTDFTLTISSLQPEDVATYYCQNHNSVPLTFGGGTKVEIK
notes: as for B1
B24: 12841B (antibody, V domains shown)
VH: EVQLVESGGGLVQPGGSLRLSCAASGFTFSNYWMNWVRQAPGKGLEWVANIKEDGGKKLYVDSVKGRFTISRDNAKNSLFLQMNSLRAEDTAVYYCAREDTTLVVDYYYYGMDVWGQGTTVTVSS
VL: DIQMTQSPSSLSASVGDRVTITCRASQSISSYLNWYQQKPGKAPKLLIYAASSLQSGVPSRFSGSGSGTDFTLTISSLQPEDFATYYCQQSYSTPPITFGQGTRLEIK
notes: as for B1
B25: 12850B (antibody, V domains shown)
VH: QVQLVQSGAEVKKPGSSVKVSCKASGGTFNTYAITWVRQAPGQGLEWMGGIIPISGIAEYAQKFQGRVTITTDDSSTTAYMELNSLRSEDTAVYYCASWNYALYYFYGMDVWGRGTTVTVSS
VL: not shown
notes: as for B1
B26: 69261 (antibody, V domains shown)
VH: QVQLVESGGGLVKPGGSLRLSCAASGFTFSVYYMNWIRQAPGKGLEWVSYISSSGSTIYYADSVKGRFTISRDNAKNSLYLQMNSLRAEDTAVYYCGREGYSGTYSYYGMDVWGQGTTVTVSS
VL: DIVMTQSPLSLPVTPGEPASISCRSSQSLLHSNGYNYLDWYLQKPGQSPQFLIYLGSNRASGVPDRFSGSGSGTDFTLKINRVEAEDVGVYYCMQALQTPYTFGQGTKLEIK
notes: as for B1
B27: 69263 (antibody, V domains shown)
VH: EVQLVESGGGLVQPGRSLRLSCAVSGFTFDDYAMHWVRQAPGKGLEWVSGISWNSGTRGYADSVKGRFTISRDNAKNSLYLQMNSLRGEDTALYYCVKDITISPNYYGMDVWGQGTTVTVSS
VL: DIQMTQSPSSLSASVGDRVTITCRASQDISHYSAWYQQKPGKLPNLLIYAASTLQSGVPSRFSGSGSGTDFSLTTSSLQPEDVATYYCQKYNSVPLTFGGGTKVEIK
notes: as for B1

molecular target: T1, human transferrin receptor 1 (hTfR) (human, UniProt P02786 89-760, limits assumed); test: in vitro binding screen, method not described
T1 construct: also called TFRC; transferrin receptor protein 1
T1 sequence (P02786 89-760 limits assumed): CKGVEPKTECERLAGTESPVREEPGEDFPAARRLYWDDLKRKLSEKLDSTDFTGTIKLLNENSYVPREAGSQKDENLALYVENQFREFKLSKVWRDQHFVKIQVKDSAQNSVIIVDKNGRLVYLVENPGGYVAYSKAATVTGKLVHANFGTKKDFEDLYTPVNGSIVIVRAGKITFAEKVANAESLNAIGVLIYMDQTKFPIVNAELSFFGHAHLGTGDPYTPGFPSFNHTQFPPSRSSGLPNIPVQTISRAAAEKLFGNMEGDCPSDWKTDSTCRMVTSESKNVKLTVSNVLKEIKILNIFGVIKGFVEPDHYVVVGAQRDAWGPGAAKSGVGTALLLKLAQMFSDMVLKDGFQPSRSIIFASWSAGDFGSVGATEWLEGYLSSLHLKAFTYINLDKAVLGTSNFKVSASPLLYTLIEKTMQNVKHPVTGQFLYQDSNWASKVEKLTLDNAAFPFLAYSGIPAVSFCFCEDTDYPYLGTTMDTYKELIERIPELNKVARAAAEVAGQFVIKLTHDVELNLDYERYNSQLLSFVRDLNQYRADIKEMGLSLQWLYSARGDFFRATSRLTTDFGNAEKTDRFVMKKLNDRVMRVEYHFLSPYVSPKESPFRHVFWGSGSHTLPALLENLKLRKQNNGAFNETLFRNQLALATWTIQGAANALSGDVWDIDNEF

Binding result, binds:
B1, B2, B3, B4, B5, B6, B7, B8, B9, B10, B11, B12, B13, B14, B15, B16, B17, B18, B19, B20, B21, B22, B23, B24, B25, B26, B27
